Laboratory results from patent US20220411483A1 (Chugai, published 2022).

T1: FcgRIIb (human, UniProt P31994 43-217)
T1 construct: extracellular domain; also called FcγRIIb
T1 sequence (looked up): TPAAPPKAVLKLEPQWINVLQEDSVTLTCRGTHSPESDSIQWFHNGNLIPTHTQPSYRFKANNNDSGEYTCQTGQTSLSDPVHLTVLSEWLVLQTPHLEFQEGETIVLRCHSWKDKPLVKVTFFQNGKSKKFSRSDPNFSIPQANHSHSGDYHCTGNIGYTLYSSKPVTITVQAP

T2: FcgRIIaR (human, UniProt P12318 34-217)
T2 construct: extracellular domain; also called FcγRIIa R type; FcγRIIa (R type)
T2 sequence (looked up): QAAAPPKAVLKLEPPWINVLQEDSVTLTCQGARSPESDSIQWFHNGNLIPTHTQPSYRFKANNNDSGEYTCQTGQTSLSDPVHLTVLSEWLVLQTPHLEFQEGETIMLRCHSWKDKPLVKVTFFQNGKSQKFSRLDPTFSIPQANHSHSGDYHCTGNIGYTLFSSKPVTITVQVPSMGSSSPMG


How the values were obtained:
human complement C1q = biological target: T3, human complement C1q (human, UniProt P02745 23-245; P02746 28-253; P02747 29-245); assay: SPR, C1q bound per antibody captured on Protein L
T3 construct: Bought (PROSPEC or Calbiochem); also called human C1q
T3 sequence (P02745 23-245 limits assumed, chain 1 of 3): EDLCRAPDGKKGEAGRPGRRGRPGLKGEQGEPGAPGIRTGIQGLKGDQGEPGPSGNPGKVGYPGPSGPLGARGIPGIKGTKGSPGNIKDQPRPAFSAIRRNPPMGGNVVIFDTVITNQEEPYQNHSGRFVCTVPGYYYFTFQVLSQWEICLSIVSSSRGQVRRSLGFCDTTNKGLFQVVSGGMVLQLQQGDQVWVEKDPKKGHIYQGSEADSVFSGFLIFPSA
T3 sequence (P02746 28-253 limits assumed, chain 2 of 3): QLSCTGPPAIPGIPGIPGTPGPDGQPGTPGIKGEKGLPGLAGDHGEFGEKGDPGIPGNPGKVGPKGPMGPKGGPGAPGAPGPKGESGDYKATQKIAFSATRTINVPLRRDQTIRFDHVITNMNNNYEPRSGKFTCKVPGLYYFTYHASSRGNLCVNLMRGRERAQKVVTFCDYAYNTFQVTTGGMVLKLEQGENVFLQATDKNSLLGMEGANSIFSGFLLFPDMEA
T3 sequence (P02747 29-245 limits assumed, chain 3 of 3): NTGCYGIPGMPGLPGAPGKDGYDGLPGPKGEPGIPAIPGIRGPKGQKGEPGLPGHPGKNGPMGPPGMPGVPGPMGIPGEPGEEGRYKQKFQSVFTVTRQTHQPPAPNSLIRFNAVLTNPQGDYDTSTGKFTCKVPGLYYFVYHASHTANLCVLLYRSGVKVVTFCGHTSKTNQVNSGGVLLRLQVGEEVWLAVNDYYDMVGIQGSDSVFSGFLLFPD
Experimental: The interaction between an antibody and human C1q was analyzed using Biacore T200 (GE Healthcare). HBS-EP+ (GE Healthcare) was used as the running buffer, and the measurement temperature was set at 25° C. Chips produced by immobilizing Protein L (ACTIGEN or BioVision) onto Series S sensor Chip CM4 (GE Healthcare) by amine coupling were used.
The antibodies of interest were captured onto these sensor chips, and allowed to interact with human complement C1q (PROSPEC or Calbiochem) diluted in the running buffer. The amount of antibody binding was determined, and comparisons were made among the antibodies. However, since the amount of C1q bound depends on the amount of captured antibodies, corrected values obtained by dividing the amount of C1q bound by the amount of each antibody captured were compared. Furthermore, by reaction with 10 mM glycine-HCl, pH 1.5, the antibodies captured onto the sensor chips were washed, and the sensor chips were recycled and reused.

FcgRIIb = biological target: T1, FcgRIIb; assay: SPR, amount bound per captured antibody
FcgRIIaR = biological target: T2, FcgRIIaR; assay: SPR, amount bound per captured antibody

Amount of C1q-binding when that for G1d is Defined as 100 (human complement C1q)	Relative FcgRIIb-binding Activity (FcgRIIb)	Relative FcgRIIaR-binding Activity (FcgRIIaR)	Binder
1.8 G1d=100	85.8 IL6R-G1d/IL6R-L=100	5.6 IL6R-G1d/IL6R-L=100	IL6R-P754/IL6R-L (antibody, human IgG1, kappa) heavy: QVQLQESGPGLVKPSETLSLTCAVSGHSISHDHAWSWVRQPPGEGLEWIGFISYSGITNYNPSLQGRVTISRDNSKNTLYLQMNSLRAEDTAVYYCARSLARTTAMDYWGEGTLVTVSSASTKGPSVFPLAPSSKSTSGGTAALGCLVKDYFPEPVTVSWNSGALTSGVHTFPAVLQSSGLYSLSSVVTVPSSSLGTQTYICNVNHKPSNTKVDKKVEPKSCDKTHTCPPCPAPELLGQDSVMLFPPKPKDTLMISRTPEVTCVVVDVSPEDPEVKFNWYVDGVEVHNAKTKPREEQENSTYRVVSVLTVLHQDWLNGKEYKCAVHNKALPHPIEKTISKAKGQPREPQVYTLPPSRDELTKNQVSLTCLVKGFYPSDIAVEWESNGQPENNYKTTPPVLDSDGSFFLYSKLTVDKSRWQQGNVFSCSVMHEALHNHYTQKSLSLSP light: not shown
2.1 G1d=100	320 IL6R-G1d/IL6R-L=100	103 IL6R-G1d/IL6R-L=100	IL6R-P761/IL6R-L (antibody, human IgG1, kappa) heavy: QVQLQESGPGLVKPSETLSLTCAVSGHSISHDHAWSWVRQPPGEGLEWIGFISYSGITNYNPSLQGRVTISRDNSKNTLYLQMNSLRAEDTAVYYCARSLARTTAMDYWGEGTLVTVSSASTKGPSVFPLAPSSKSTSGGTAALGCLVKDYFPEPVTVSWNSGALTSGVHTFPAVLQSSGLYSLSSVVTVPSSSLGTQTYICNVNHKPSNTKVDKKVEPKSCDKTHTCPPCPAPDLLGDDSVFLFPPKPKDTLMISRTPEVTCVVVDVSEEDGEVKFNWYVDGVEVHNAKTKPREEQYNSTYRVVSVLTVLHQDWLNGKEYKCKVSNKGLPSSIEKTISKAKGQPREPQVYTLPPSRDELTKNQVSLTCLVKGFYPSDIAVEWESNGQPENNYKTTPPVLDSDGSFFLYSKLTVDKSRWQQGNVFSCSVMHEALHNHYTQKSLSLSP light: not shown
14.4 G1d=100	130 IL6R-G1d/IL6R-L=100	9.8 IL6R-G1d/IL6R-L=100	IL6R-P755/IL6R-L (antibody, human IgG1, kappa) heavy: QVQLQESGPGLVKPSETLSLTCAVSGHSISHDHAWSWVRQPPGEGLEWIGFISYSGITNYNPSLQGRVTISRDNSKNTLYLQMNSLRAEDTAVYYCARSLARTTAMDYWGEGTLVTVSSASTKGPSVFPLAPSSKSTSGGTAALGCLVKDYFPEPVTVSWNSGALTSGVHTFPAVLQSSGLYSLSSVVTVPSSSLGTQTYICNVNHKPSNTKVDKKVEPKSCDKTHTCPPCPAPELLGQDSVMLFPPKPKDTLMISRTPEVTCVVVDVSPEDPEVKFNWYVDGVEVHNAKTKPREEQENSTYRVVSVLTVLHQDWLNGKEYKCEVHNKALPHPIEKTISKAKGQPREPQVYTLPPSRDELTKNQVSLTCLVKGFYPSDIAVEWESNGQPENNYKTTPPVLDSDGSFFLYSKLTVDKSRWQQGNVFSCSVMHEALHNHYTQKSLSLSP light: not shown
22.6 G1d=100	327 IL6R-G1d/IL6R-L=100	89.2 IL6R-G1d/IL6R-L=100	IL6R-P757/IL6R-L (antibody, human IgG1, kappa) heavy: QVQLQESGPGLVKPSETLSLTCAVSGHSISHDHAWSWVRQPPGEGLEWIGFISYSGITNYNPSLQGRVTISRDNSKNTLYLQMNSLRAEDTAVYYCARSLARTTAMDYWGEGTLVTVSSASTKGPSVFPLAPSSKSTSGGTAALGCLVKDYFPEPVTVSWNSGALTSGVHTFPAVLQSSGLYSLSSVVTVPSSSLGTQTYICNVNHKPSNTKVDKKVEPKSCDKTHTCPPCPAPELLGGDSVFLFPPKPKDTLMISRTPEVTCVVIDVAEEDGEVKFNWYVDGVEVHNAKTKPREEQYNSTYRVVSVLTVLHQDWLNGKEYKCKVSNKGLPSSIEKTISKAKGQPREPQVYTLPPSRDELTKNQVSLTCLVKGFYPSDIAVEWESNGQPENNYKTTPPVLDSDGSFFLYSKLTVDKSRWQQGNVFSCSVMHEALHNHYTQKSLSLSP light: not shown
14.6 G1d=100	252 IL6R-G1d/IL6R-L=100	75.8 IL6R-G1d/IL6R-L=100	IL6R-P762/IL6R-L (antibody, human IgG1, kappa) heavy: QVQLQESGPGLVKPSETLSLTCAVSGHSISHDHAWSWVRQPPGEGLEWIGFISYSGITNYNPSLQGRVTISRDNSKNTLYLQMNSLRAEDTAVYYCARSLARTTAMDYWGEGTLVTVSSASTKGPSVFPLAPSSKSTSGGTAALGCLVKDYFPEPVTVSWNSGALTSGVHTFPAVLQSSGLYSLSSVVTVPSSSLGTQTYICNVNHKPSNTKVDKKVEPKSCDKTHTCPPCPAPELLGGDSVFLFPPKPKDTLMISRTPEVTCVVVDVSHEDGEVKFNWYVDGVEVHNAKTKPREEQYNSTYRVVSVLTVLHQDWLNGKEYKCKVSNKGLPSSIEKTISKAKGQPREPQVYTLPPSRDELTKNQVSLTCLVKGFYPSDIAVEWESNGQPENNYKTTPPVLDSDGSFFLYSKLTVDKSRWQQGNVFSCSVMHEALHNHYTQKSLSLSP light: not shown

More lines, now with the values behind:

Binder	Amount of C1q-binding when that for G1d is Defined as 100 (human complement C1q)	Relative FcgRIIb-binding Activity (FcgRIIb)	Relative FcgRIIaR-binding Activity (FcgRIIaR)
IL6R-P760/IL6R-L (antibody, human IgG1, kappa) heavy: QVQLQESGPGLVKPSETLSLTCAVSGHSISHDHAWSWVRQPPGEGLEWIGFISYSGITNYNPSLQGRVTISRDNSKNTLYLQMNSLRAEDTAVYYCARSLARTTAMDYWGEGTLVTVSSASTKGPSVFPLAPSSKSTSGGTAALGCLVKDYFPEPVTVSWNSGALTSGVHTFPAVLQSSGLYSLSSVVTVPSSSLGTQTYICNVNHKPSNTKVDKKVEPKSCDKTHTCPPCPAPELLGDDSVFLFPPKPKDTLMISRTPEVTCVVVDVSEEDGEVKFNWYVDGVEVHNAKTKPREEQYNSTYRVVSVLTVLHQDWLNGKEYKCKVSNKGLPSSIEKTISKAKGQPREPQVYTLPPSRDELTKNQVSLTCLVKGFYPSDIAVEWESNGQPENNYKTTPPVLDSDGSFFLYSKLTVDKSRWQQGNVFSCSVMHEALHNHYTQKSLSLSP light: not shown	21.7 G1d=100	304 IL6R-G1d/IL6R-L=100	97.1 IL6R-G1d/IL6R-L=100
IL6R-P759/IL6R-L (antibody, human IgG1, kappa) heavy: QVQLQESGPGLVKPSETLSLTCAVSGHSISHDHAWSWVRQPPGEGLEWIGFISYSGITNYNPSLQGRVTISRDNSKNTLYLQMNSLRAEDTAVYYCARSLARTTAMDYWGEGTLVTVSSASTKGPSVFPLAPSSKSTSGGTAALGCLVKDYFPEPVTVSWNSGALTSGVHTFPAVLQSSGLYSLSSVVTVPSSSLGTQTYICNVNHKPSNTKVDKKVEPKSCDKTHTCPPCPAPDLLGDDSVFLFPPKPKDTLMISRTPEVTCVVVDVSDEDGEVKFNWYVDGVEVHNAKTKPREEQYNSTYRVVSVLTVLHQDWLNGKEYKCKVSNKGLPSSIEKTISKAKGQPREPQVYTLPPSRDELTKNQVSLTCLVKGFYPSDIAVEWESNGQPENNYKTTPPVLDSDGSFFLYSKLTVDKSRWQQGNVFSCSVMHEALHNHYTQKSLSLSP light: not shown	14.5 G1d=100	305 IL6R-G1d/IL6R-L=100	96.5 IL6R-G1d/IL6R-L=100
IL6R-P756/IL6R-L (antibody, human IgG1, kappa) heavy: QVQLQESGPGLVKPSETLSLTCAVSGHSISHDHAWSWVRQPPGEGLEWIGFISYSGITNYNPSLQGRVTISRDNSKNTLYLQMNSLRAEDTAVYYCARSLARTTAMDYWGEGTLVTVSSASTKGPSVFPLAPSSKSTSGGTAALGCLVKDYFPEPVTVSWNSGALTSGVHTFPAVLQSSGLYSLSSVVTVPSSSLGTQTYICNVNHKPSNTKVDKKVEPKSCDKTHTCPPCPAPDLLGGDSVFLFPPKPKDTLMISRTPEVTCVVIDVAEEDGEVKFNWYVDGVEVHNAKTKPREEQYNSTYRVVSVLTVLHQDWLNGKEYKCKVSNKGLPSSIEKTISKAKGQPREPQVYTLPPSRDELTKNQVSLTCLVKGFYPSDIAVEWESNGQPENNYKTTPPVLDSDGSFFLYSKLTVDKSRWQQGNVFSCSVMHEALHNHYTQKSLSLSP light: not shown	15 G1d=100	323 IL6R-G1d/IL6R-L=100	92.4 IL6R-G1d/IL6R-L=100
IL6R-P758/IL6R-L (antibody, human IgG1, kappa) heavy: QVQLQESGPGLVKPSETLSLTCAVSGHSISHDHAWSWVRQPPGEGLEWIGFISYSGITNYNPSLQGRVTISRDNSKNTLYLQMNSLRAEDTAVYYCARSLARTTAMDYWGEGTLVTVSSASTKGPSVFPLAPSSKSTSGGTAALGCLVKDYFPEPVTVSWNSGALTSGVHTFPAVLQSSGLYSLSSVVTVPSSSLGTQTYICNVNHKPSNTKVDKKVEPKSCDKTHTCPPCPAPELLGDDSVFLFPPKPKDTLMISRTPEVTCVVVDVSDEDGEVKFNWYVDGVEVHNAKTKPREEQYNSTYRVVSVLTVLHQDWLNGKEYKCKVSNKGLPSSIEKTISKAKGQPREPQVYTLPPSRDELTKNQVSLTCLVKGFYPSDIAVEWESNGQPENNYKTTPPVLDSDGSFFLYSKLTVDKSRWQQGNVFSCSVMHEALHNHYTQKSLSLSP light: not shown	2 G1d=100	285 IL6R-G1d/IL6R-L=100	90.6 IL6R-G1d/IL6R-L=100
